Substrate: Cc1cc(=O)oc2cc(NC(=O)CC[C@H](N)C(=O)O)ccc12
Assay: Hydrolytic assay of E. coli GGT (Michaelis constant of substrate)
Type: biochemical, Escherichia coli K-12
Details: other: E. coli GGT, pH 5.5, 25° C.
Experimental: In the experiment, at first, Michaelis constants (Km) for 7-(γ-L-glutamylamino)-4-methylcoumarin as substrate were measured by a fluorescence method [Smith, G. D.; Ding, J. L.; Peters, T. J. Anal. Biochem. 100, 136-139 (1979)] for the hydrolytic activities of E-coli GGT and human GGT.
In the hydrolytic assay of E. coli GGT, 10 μL of a […] enzyme solution was added to a 100 mM succinic acid-sodium hydroxide buffer solution (pH 5.5) in a total volume of 1 mL containing 100 μL of 2 μM substrate aqueous solution. The product, 7-amino-4-methylcoumarin (AMC), released along with the enzyme reaction was traced continuously at 25° C. using a fluorospectrophotometer F-2000 manufactured by Hitachi Ltd. (excitation wavelength: 350 nm, emission wavelength: 440 nm). The AMC concentration was separately measured by forming a calibration curve showing the relation of the fluorescence intensity (F) and the concentration (C) using standard solutions and was calculated from the relational expression (1) of the fluorescence intensity alteration (ΔF) and concentration alteration (ΔC).
[Expression 1] ΔF/ΔC=0.11 nM^−1 (1)
The fluorescence intensity was proportional to the AMC concentration up to 2.0 μM. As a result, Km value for 7-(γ-L-glutamylamino)-4-methylcoumarin was 0.2 μM under this condition.

B1: E. coli GGT (Escherichia coli K-12) (protein)
chain 1: APPAPPVSYGVEEDVFHPVRAKQGMVASVDATATQVGVDILKEGGNAVDAAVAVGYALAVTHPQAGNLGGGGFMLIRSKNGNTTAIDFREMAPAKATRDMFLDDQGNPDSKKSLTSHLASGTPGTVAGFSLALDKYGTMPLNKVVQPAFKLARDGFIVNDALADDLKTYGSEVLPNHENSKAIFWKEGEPLKKGDTLVQANLAKSLEMIAENGPDEFYKGTIAEQIAQEMQKNGGLITKEDLAAYKAVERTPISGDYRGYQVYSMPPPSSGGIHIVQILNILENFDMKKYGFGSADAMQIMAEAEKYAYADRSEYLGDPDFVKVPWQALTNKAYAKSIADQIDINKAKPSSEIRPGKLAPYESNQ
chain 2: TTHYSVVDKDGNAVAVTYTLNTTFGTGIVAGESGILLNNQMDDFSAKPGVPNVYGLVGGDANAVGPNKRPLSSMSPTIVVKDGKTWLVTGSPGGSRIITTVLQMVVNSIDYGLNVAEATNAPRFHHQWLPDELRVEKGFSPDTLKLLEAKGQKVALKEAMGSTQSIMVGPDGELYGASDPRSVDDLTAGY
notes: was used as a purified enzyme of E-coli GGT; made in house
  Km: 0.2 µM
